By stoichiometry N is commonly meant the number of molecules, sites or subunits per partner or assembly.

The source of these data is paper PMC5333627.

Experiment [1] has as its target His-Jo (S. pneumoniae). The experiment in a line: covalent complex formation seen by SDS-PAGE; His-Jo and In co-expressed in E. coli cytoplasm (pETDuet, IPTG 3 h at 37 °C); crude lysate on denaturing SDS-PAGE, Coomassie blue.
The next experiment deals with CbpE-Jo (S. pneumoniae). The experiment in a line: confocal fluorescence microscopy of live cells; live pneumococcal cells expressing CbpE-Jo or CbpE-In incubated with exogenous His-GFP-In or PBS, extensive washes; mean maximal GFP intensity of five frames, autofluorescence subtracted.
In experiment [2] the target is His-Jo (S. pneumoniae). The experiment in a line: covalent complex formation seen by SDS-PAGE; Jo and In partners at 25 μM, pH 7, 20 °C, 60 min; proportion of complex normalised to 100%.
For experiment [3], the target named is His-Jo (S. pneumoniae). The experiment in a line: covalent complex formation seen by SDS-PAGE; 10 μM purified His-Jo and His-In, 50 mM Tris pH 8.0, 200 mM NaCl, 20 °C; 90 min; bands quantified with ImageJ.
Experiment [4] deals with His-Jo (S. pneumoniae). Put plainly: covalent complex formation seen by SDS-PAGE; 10 μM purified His-Jo and His-In, 50 mM Tris pH 8.0, 200 mM NaCl, 20 °C; 180 min; bands quantified with ImageJ.
For experiment [5], the target named is His-Jo (S. pneumoniae). The experiment in a line: covalent complex formation seen by SDS-PAGE; Jo and In partners at 25 μM, pH 6, 20 °C, 60 min; proportion of complex normalised to 100%.
In experiment [6] the target is His-Jo (S. pneumoniae). The experiment in a line: covalent complex formation seen by SDS-PAGE; Jo and In partners at 25 μM, pH 5, 20 °C, 60 min; proportion of complex normalised to 100%.
Experiment [7] has as its target His-Jo (S. pneumoniae). Put plainly: covalent complex formation seen by SDS-PAGE; Jo and In partners at 25 μM, pH 8, 20 °C, 60 min; proportion of complex normalised to 100%.

In the experiment with His-Jo (S. pneumoniae) [1], In (domain or fragment) came in with a stoichiometry N of 1.
For His-GFP-In (domain or fragment), in the experiment with CbpE-Jo (S. pneumoniae), the fluorescence signal of the cells (arbitrary units (AU)) was determined as 550.
With His-In (domain or fragment), the percent of complex reconstituted was determined as 100% with His-Jo (S. pneumoniae) [2]; 60% with His-Jo (S. pneumoniae) [3]; 100% in the experiment with His-Jo (S. pneumoniae) [4]; 90% with His-Jo (S. pneumoniae) [5]; 18% with His-Jo (S. pneumoniae) [6]; 100% in the experiment with His-Jo (S. pneumoniae) [7].
